In patent US20120164688A1 (Regeneron, published 2012):
Substitutions are numbered along the chain they refer to.

B1: 301272-3H10-A10 (antibody)
heavy: not shown
VL: DIRMTQSPSSLSASAGDRVTITCRASQAIRNDLGWYQQKPGKAPKRLIYAAFNLQSGVPSRFSGSGSGTEFTLTISSLQPEDLASYYCQQYNRYPWTFGQGTKLEIK
notes: also called REGN261
B2: REGN472 (antibody, human IgG1)
heavy: not shown
VL: DIQMTQSPSSLSASVGDRVTITCRASQAIRNDLGWYQQKPGKAPKRLIYAAFNLQSGVPSRFSGSGSGTEFTLTISSLQPEDFATYYCQQYNRYPWTFGQGTKVEIKR
B3: REGN474 (antibody, human IgG4 S228P)
heavy: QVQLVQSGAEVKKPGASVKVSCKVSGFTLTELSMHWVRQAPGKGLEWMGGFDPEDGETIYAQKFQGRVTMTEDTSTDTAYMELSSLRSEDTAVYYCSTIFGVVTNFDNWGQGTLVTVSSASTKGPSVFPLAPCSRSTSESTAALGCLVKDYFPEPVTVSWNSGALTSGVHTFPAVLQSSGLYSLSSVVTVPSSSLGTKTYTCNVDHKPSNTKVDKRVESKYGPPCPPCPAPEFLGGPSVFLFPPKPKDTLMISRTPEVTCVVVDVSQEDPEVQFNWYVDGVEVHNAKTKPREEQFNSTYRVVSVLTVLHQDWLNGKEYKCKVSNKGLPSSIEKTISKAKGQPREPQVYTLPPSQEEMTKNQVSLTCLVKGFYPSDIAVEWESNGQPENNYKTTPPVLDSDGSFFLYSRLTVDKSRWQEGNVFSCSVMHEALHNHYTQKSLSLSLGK
VL: B2 VL
B4: REGN475 (antibody, human IgG4 S228P)
heavy: not shown
VL: B2 VL with V15A, F83L, T85S
B5: human brain derived neurotrophic factor (hBDNF) (ligand, UniProt P23560 129-247, looked up)
chain: HSDPARRGELSVCDSISEWVTAADKKTAVDMSGGTVTVLEKVPVSKGQLKQYFYETKCNPMGYTKEGCRGIDKRHWNSQCRTTQSYVRALTMDSKKRIGWRFIRIDTSCVCTLTIKRGR
B6: REGN476 (antibody, human IgG4 S228P, V domains shown)
VH: EVQLVESGGGLVQPGRSLRLSCAAPGFNFDDYAMHWVRQAPGKGLEWVSGISWNSGTIGYADSVKGRFTISRDNAKNSLYLQMNSLRAEDTALYYCAKEGVWFGKLFSSYGMDVWGQGTTVTVSS
VL: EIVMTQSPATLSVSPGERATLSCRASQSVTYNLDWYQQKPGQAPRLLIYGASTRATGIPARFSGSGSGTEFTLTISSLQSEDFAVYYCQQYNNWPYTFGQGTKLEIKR
B7: REGN477 (antibody, human IgG4 S228P)
heavy: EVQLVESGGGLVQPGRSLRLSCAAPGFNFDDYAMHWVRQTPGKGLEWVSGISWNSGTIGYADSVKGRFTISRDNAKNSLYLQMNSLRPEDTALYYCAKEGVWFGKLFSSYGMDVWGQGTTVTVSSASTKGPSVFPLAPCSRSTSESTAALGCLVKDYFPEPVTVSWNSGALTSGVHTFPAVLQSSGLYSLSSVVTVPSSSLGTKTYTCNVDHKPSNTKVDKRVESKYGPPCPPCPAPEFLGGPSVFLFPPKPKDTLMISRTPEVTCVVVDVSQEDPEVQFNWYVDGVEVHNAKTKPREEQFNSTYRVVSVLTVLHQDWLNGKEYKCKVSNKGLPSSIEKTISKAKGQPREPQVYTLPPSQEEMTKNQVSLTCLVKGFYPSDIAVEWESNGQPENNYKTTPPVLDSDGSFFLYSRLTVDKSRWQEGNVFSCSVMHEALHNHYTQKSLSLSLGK
VL: EIVMTQSPATLSVSPGERATLSCRASQSVTYNLDWYQQKPGQAPRLLIFGASTRATGIPARFSGSGSGTEFTLTITSLQSEDFAVYYCQQYNNWPYTFGQGTKLEIKR
B8: recombinant human TrkA-hFc (Fc fusion, UniProt P04629 33-423, looked up)
chain: AAPCPDACCPHGSSGLRCTRDGALDSLHHLPGAENLTELYIENQQHLQHLELRDLRGLGELRNLTIVKSGLRFVAPDAFHFTPRLSRLNLSFNALESLSWKTVQGLSLQELVLSGNPLHCSCALRWLQRWEEEGLGGVPEQKLQCHGQGPLAHMPNASCGVPTLKVQVPNASVDVGDDVLLRCQVEGRGLEQAGWILTELEQSATVMKSGGLPSLGLTLANVTSDLNRKNVTCWAENDVGRAEVSVQVNVSFPASVQLHTAVEMHHWCIPFSVDGQPAPSLRWLFNGSVLNETSFIFTEFLEPAANETVRHGCLRLNQPTHVNNGNYTLLAANPFGQASASIMAAFMDNPFEFNPEDPIPVSFSPVDTNSTSGDPVEKKDETPFGVSVAVG
notes: extracellular domain; dimeric fusion protein; also called hTrkA-hFc; not shown: Fc portion of human IgG1
B9: recombinant human p75-hFc (Fc fusion, UniProt P08138 29-250, looked up)
chain: KEACPTGLYTHSGECCKACNLGEGVAQPCGANQTVCEPCLDSVTFSDVVSATEPCKPCTECVGLQSMSAPCVEADDAVCRCAYGYYQDETTGRCEACRVCEAGSGLVFSCQDKQNTVCEECPDGTYSDEANHVDPCLPCTVCEDTERQLRECTRWADAECEEIPGRWITRSTPPEGSDSTAPSTQEPEAPPEQDLIASTVAGVVTTVMGSSQPVVTRGTTDN
notes: extracellular domain; dimeric fusion protein; also called hp75-hFc; not shown: Fc portion of human IgG1
B10: human neurotrophin-3 (NT-3) (ligand, UniProt P20783 139-257, looked up)
chain: YAEHKSHRGEYSVCDSESLWVTDKSSAIDIRGHQVTVLGEIKTGNSPVKQYFYETRCKEARPVKNGCRGIDDKHWNSQCKTSQTYVRALTSENNKLVGWRWIRIDTSCVCALSRKIGRT
notes: also called human NT-3

Key:
[1] = target: B10; test: BIACORE SPR; mAb captured, NT-3 injected
Method: (§1) Briefly, goat anti-human IgG polyclonal antibody was chemically linked to a CM5 chip. […] Both association and dissociation phases were monitored and data were analyzed.

[2] = target: T1, human nerve growth factor (NGF) (human, UniProt P01138 122-241); test: BIACORE blocking; % free NGF bound to p75-hFc chip
T1 construct: range 122-241; biotin-labeled in OCTET and ELISA assays; also called human NGF; biotin-NGF
T1 sequence (P01138 122-241 limits assumed): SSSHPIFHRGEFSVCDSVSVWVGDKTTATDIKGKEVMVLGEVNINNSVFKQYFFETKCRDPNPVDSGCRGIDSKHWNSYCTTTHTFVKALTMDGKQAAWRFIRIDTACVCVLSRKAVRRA
Excerpt: (§2) To identify blocking antibodies, a receptor blocking assay was designed using a BIACORE™ 3000 instrument. Recombinant human TrkA-hFc and human p75-hFc proteins were amine-coupled to a CM5 chip to a density of about 5000-6000 RU.

[3] = target: T1, human nerve growth factor (NGF); test: BIACORE SPR; mAb captured, 20 nM NGF
T1 sequence (P01138 122-241 limits assumed): as above
Method: as §1

[4] = target: T1, human nerve growth factor (NGF); test: BIACORE blocking; % free NGF bound to TrkA-hFc chip
Excerpt: as §2

[5] = target: T1, human nerve growth factor (NGF); test: BIACORE SPR; mAb captured, human NGF injected
Method: (§3) Antibodies were captured on either a goat, anti-human or anti-mouse IgG polyclonal antibody surface created by direct amine coupling of the capture antibody to a BIACORE™ chip. […] Kinetic analysis was performed to obtain the equilibrium dissociation constant (KD) and dissociation rate constant, and the latter was used to calculate the antigen/antibody complex dissociation t_{1/2} (Table 1).

[6] = target: T1, human nerve growth factor (NGF); test: BIACORE SPR; complex dissociation half-life
Method: as §3

[7] = target: T1, human nerve growth factor (NGF); test: cell-based or functional assay
[8] = target: T1, human nerve growth factor (NGF); test: BIACORE SPR
Method: as §3
(§4) The binding affinities of the antibodies to both mNGF and rNGF were determined as described above.

mouse NGF (mNGF) [9] = target: T2, mouse NGF (mNGF) (mouse, UniProt P01139 122-241, limits assumed); test: BIACORE SPR
T2 sequence (P01139 122-241 limits assumed): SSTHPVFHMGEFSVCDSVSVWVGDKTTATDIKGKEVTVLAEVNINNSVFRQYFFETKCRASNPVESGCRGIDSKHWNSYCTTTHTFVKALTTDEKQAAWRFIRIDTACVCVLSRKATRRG
Method: as §3, §4

rat NGF (rNGF) [10] = target: T3, rat NGF (rNGF) (rat, UniProt P25427 122-241, limits assumed); test: BIACORE SPR
T3 sequence (P25427 122-241 limits assumed): as the sequence (P01139 122-241 limits assumed) above, with A40G, R50K, S61P, E94D, T117A counted along it
Method: as §3, §4

[11] = target: T1, human nerve growth factor (NGF); test: competition ELISA; 50 pM biotin-NGF, hTrkA-hFc plate
Method: (§5) Specifically, the microtiter plates were prepared by coating the plates with 0.5 μg/ml hTrkA-hFc or 1 μg/ml hp75-hFc solution in PBS buffer overnight at 4° C., followed by blocking the plates with 0.5% BSA prior to use.

[12] = target: T1, human nerve growth factor (NGF); test: competition ELISA; 50 pM biotin-NGF, hp75-hFc plate
Method: as §5

[13] = target: T1, human nerve growth factor (NGF); test: BIACORE SPR; purified mAb
mouse NGF (mNGF) [14] = target: T2, mouse NGF (mNGF); test: BIACORE SPR; purified mAb
rat NGF (rNGF) [15] = target: T3, rat NGF (rNGF); test: BIACORE SPR; purified mAb
[16] = target: B10; test: BIACORE SPR
[17] = target: T1, human nerve growth factor (NGF); test: cell-based or functional assay; remark: listed apart in the source
[18] = target: T1, human nerve growth factor (NGF); test: BIACORE SPR; purified mAb; remark: listed apart in the source
Method: as §3

[19] = target: B10; test: BIACORE; 20 nM NT-3 + 500 nM agent, % NT-3 bound to TrkB-hFc chip
Method: (§6) Human TrkA-hFc (9300 RU), human TrkB-hFc (6000 RU), human TrkC-hFc (9100 RU) and human p75-hFc (7500 RU) were covalently coupled to BIACORE® CM5 chip surfaces by amine-coupling procedure. […] The binding mixture was first incubated at room temperature to reach equilibrium (about 1 hr) and then was injected over the above TrkA-hFc, TrkB-hFc, TrkC-hFc and p75-hFc surfaces.

[20] = target: B10; test: OCTET solution competition against biotin-NGF sensor
Method: (§7) Changes in the thickness of the biological layer were measured after incubation. The binding was normalized as a percentage of binding relative to the binding of antibody in absence of competitor.

[21] = target: B10; test: BIACORE; 20 nM NT-3 + 500 nM agent, % NT-3 bound to TrkA-hFc chip
Method: as §6

[22] = target: B10; test: BIACORE; 20 nM NT-3 + 500 nM agent, % NT-3 bound to TrkC-hFc chip
Method: as §6

REGN475 = target: B4; test: OCTET; % REGN475 binding to biotin-NGF sensor, no competitor (reference)
Method: as §7

[23] = target: T4, humanized anti-human NGF monoclonal antibody E3 ("RN624") (tanezumab; CAS Registry No. 880266-57-9); test: OCTET; % RN624 binding to biotin-NGF sensor, no competitor (reference)
T4 construct: control antibody; also called Control (RN624); Control mAb (RN624)
Method: as §7

[24] = target: B10; test: BIACORE; 20 nM NT-3 + 500 nM agent, % NT-3 bound to p75-hFc chip
Method: as §6

Row | Binder | % Binding p75-hFc [2] | % Binding TrkA-hFc [4] | IC50 [11] | IC50 [12] | Kd [13] | Kd (mouse NGF (mNGF) [14]) | Kd (rat NGF (rNGF) [15]) | binding result [16] | IC50 (pM), PC12 SRE-luciferase [17] | Kd [18] | t1/2 [18] | % binding [19] | % binding [21] | % binding [22] | further results
1 | B1 | 2% | 1% | – | – | – | – | – | – | – | – | – | – | – | – | binding result [1]: no binding (tested: 20 nM); Kd [3]: 0.1 pM; Kd [5]: 0.1 pM; t1/2 [6]: 25.2 h; MG87 IC50 [7]: < 186 pM; PC12 IC50 [7]: 9 pM; Kd [8]: 0.1 pM; Kd (mouse NGF (mNGF) [9]): 0.2 pM; Kd (rat NGF (rNGF) [10]): 0.6 pM
2 | B2 | 7% | 4% | 12 pM | 12 pM | 0.41 pM | 0.61 pM | 3.96 pM | no binding (tested: 1.25 nM to 40 nM) | 4.5 pM | 0.41 pM | 30 h | – | – | – | –
3 | B3 | 9% | 6% | 8.1 pM | 6.3 pM | 0.41 pM | 0.43 pM | 3.42 pM | no binding (tested: 1.25 nM to 40 nM) | 6.6 pM | 0.41 pM | 31 h | – | – | – | –
4 | B4 | 10% | 6% | 20 pM | 22 pM | 0.18 pM | 0.36 pM | 0.93 pM | – | 9.6 pM | 0.18 pM | 57 h | 99% | 90% | 101% | binding result [20]: no binding (tested: 0 to 4 µM)
5 | B5 | – | – | – | – | – | – | – | – | – | – | – | – | – | – | REGN475 % Binding (REGN475): 100%; RN624 % Binding [23]: 100%
6 | B6 | 13% | 6% | 65 pM | 61 pM | 8.91 pM | 115 pM | 155 pM | no binding (tested: 1.25 nM to 40 nM) | – | 8.91 pM | 4 h | – | – | – | –
7 | B7 | 13% | 9% | 65 pM | 62 pM | 7.98 pM | 133 pM | 164 pM | no binding (tested: 1.25 nM to 40 nM) | – | 7.98 pM | 4 h | – | – | – | –
8 | B8 | – | – | – | – | – | – | – | – | – | – | – | 5% | 21% | 3% | % binding [24]: 7%
9 | B9 | – | – | – | – | – | – | – | – | – | – | – | 2% | 14% | 2% | % binding [24]: 4%
10 | B10 | – | – | – | – | – | – | – | – | – | – | – | – | – | – | REGN475 % Binding (REGN475): 100%; RN624 % Binding [23]: 100%
